Experimental findings from article PMC12489471, “A multi-dentate, cooperative interaction between endo- and exo-ribonucleases within the bacterial RNA degradosome” (Nucleic Acids Research, 2025) are described below.

One assay deals with T1, PNPase (Escherichia coli, UniProt P05055).
T1 construct: made in house; host or cells: E. coli Evo21(DE3)
T1 sequence (P05055 whole entry, looked up): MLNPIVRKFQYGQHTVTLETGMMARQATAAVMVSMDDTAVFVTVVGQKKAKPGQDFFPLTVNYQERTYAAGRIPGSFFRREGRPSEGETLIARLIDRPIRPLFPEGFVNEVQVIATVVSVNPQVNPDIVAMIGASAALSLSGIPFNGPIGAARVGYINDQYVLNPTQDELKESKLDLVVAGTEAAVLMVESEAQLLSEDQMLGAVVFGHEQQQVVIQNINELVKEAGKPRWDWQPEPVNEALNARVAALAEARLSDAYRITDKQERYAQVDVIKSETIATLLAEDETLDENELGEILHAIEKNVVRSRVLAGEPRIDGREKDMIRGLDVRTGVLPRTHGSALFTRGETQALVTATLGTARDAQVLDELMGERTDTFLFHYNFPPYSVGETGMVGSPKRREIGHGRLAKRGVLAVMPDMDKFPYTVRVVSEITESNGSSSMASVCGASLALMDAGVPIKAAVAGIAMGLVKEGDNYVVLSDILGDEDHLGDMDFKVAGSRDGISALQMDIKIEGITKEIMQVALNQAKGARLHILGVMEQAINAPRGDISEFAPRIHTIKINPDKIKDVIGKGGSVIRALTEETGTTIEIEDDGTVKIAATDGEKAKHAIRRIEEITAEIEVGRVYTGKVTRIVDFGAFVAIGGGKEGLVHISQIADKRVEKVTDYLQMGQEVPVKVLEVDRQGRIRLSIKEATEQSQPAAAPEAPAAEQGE
Format: binding, E. coli. The text has this: Briefly, at the N-terminal of the construct, there is an Hisx6 affinity tag that will be used for affinity purification. Following the Hisx6 tag there is an maltose-binding protein (MBP) tag with a TEV cleavage site to maintain solubility of the peptides. Following the MBP tag the gene encoding the peptide is inserted, and is then followed by intein, a self-cleavable tag, followed by a choline-binding domain, which can be used for an extra step of affinity purification. […] After expression, cells were harvested, resuspended in Lysis Buffer 2 (20 mM Tris–HCl, pH 8.0, 80 mM KCl, 300 mM NaCl, 20 mM Imidazole, 0.5 mM TCEP), and lysed with a cell disruptor (Emulsiflex, Avestin). […] After subsequent rounds of washing with Ni Equilibration Buffer supplemented with, respectively, 0.1% Triton-X, 1 M NaCl, and a final wash in Ni Equilibration Buffer, samples were eluted with Ni Elution Buffer (20 mM Tris–HCl, pH 8.0, 300 mM NaCl, 300 mM imidazole, 0.5 mM TCEP). Enriched fractions were then supplemented with 100 mM β-mercaptoethanol to catalyse intein self-cleavage overnight at room temperature. Treated samples were filtered and loaded on an amylose gravity flow column, equilibrated with Amy Equilibration Buffer (20 mM Tris–HCl, pH 8.0, 20 mM NaCl, 20 mM imidazole, 2 mM β-mercaptoethanol) and after washing, His-tagged TEV protease was applied to the resin and incubated at 4°C for 2 h.
PNPase carrying a C-terminal Hisx6 tag was expressed from pExp-cis-Ec_PNP-CHis vector in E. coli Evo21(DE3) cells, induced with 0.4 mM IPTG, at 18°C overnight. After expression, cells were harvested and resuspended in Lysis Buffer 2 (20 mM Tris–HCl, pH 8.0, 80 mM KCl, 300 mM NaCl, 20 mM imidazole, 0.5 mM TCEP), and lysed with a cell disruptor (Emulsiflex, Avestin). […] After subsequent rounds of washing with equilibration buffer supplemented with 0.1% Triton-X, or 1 M NaCl, the sample was eluted with Ni PNPCHis Elution Buffer (20 mM NaH2PO4, pH 8.0, 300 mM NaCl, 300 mM KCl, 5 mM MgCl2, 300 mM imidazole, pH 7.5, 10 mM β-mercaptoethanol). […] Fractions containing PNPase were run through a HiPrep™ 26/10 Desalting Column (GE Healthcare) and buffer exchanged to Q PNPCHis A (20 mM NaH2PO4, pH 8.0, 30 mM NaCl, 10% glycerol, 0.5 mM TCEP).
Interaction measurements were made using a Biacore T200 instrument (GE) at 25°C. PNPase with a 6xHisTag at the CTD was immobilized on a Series S Sensor Chip NTA (Cytiva) to provide a signal of 5 response units (RU). […] For the SPR analysis of the point mutants, binding to PNPase was measured at four different concentrations (0, 12.5, 25, and 50 nM). All concentrations were run in duplicates. The contact time was 60 s, while the dissociation time was 120 s, at a […] flow rate. […] The chip surface was regenerated with 350 mM EDTA in water, following manufacturer's instructions. Data were processed using the manufacturer’s BIAevaluation software.

For assay [1], the target named is T2, PNPase carrying a C-terminal Hisx6 tag (E. coli polynucleotide phosphorylase) (E. coli, UniProt P05055 1-711).
T2 construct: polynucleotide phosphorylase (PNPase), E. coli; Immobilised through the His tag on an NTA chip for SPR; also called PNPase C-His; PNPase with a 6xHisTag at the CTD; source: E. coli Evo21(DE3), purified (Ni-NTA, butyl-Sepharose HIC, Q, Superdex S200); not shown: His6, C-terminal, kept
T2 sequence (looked up): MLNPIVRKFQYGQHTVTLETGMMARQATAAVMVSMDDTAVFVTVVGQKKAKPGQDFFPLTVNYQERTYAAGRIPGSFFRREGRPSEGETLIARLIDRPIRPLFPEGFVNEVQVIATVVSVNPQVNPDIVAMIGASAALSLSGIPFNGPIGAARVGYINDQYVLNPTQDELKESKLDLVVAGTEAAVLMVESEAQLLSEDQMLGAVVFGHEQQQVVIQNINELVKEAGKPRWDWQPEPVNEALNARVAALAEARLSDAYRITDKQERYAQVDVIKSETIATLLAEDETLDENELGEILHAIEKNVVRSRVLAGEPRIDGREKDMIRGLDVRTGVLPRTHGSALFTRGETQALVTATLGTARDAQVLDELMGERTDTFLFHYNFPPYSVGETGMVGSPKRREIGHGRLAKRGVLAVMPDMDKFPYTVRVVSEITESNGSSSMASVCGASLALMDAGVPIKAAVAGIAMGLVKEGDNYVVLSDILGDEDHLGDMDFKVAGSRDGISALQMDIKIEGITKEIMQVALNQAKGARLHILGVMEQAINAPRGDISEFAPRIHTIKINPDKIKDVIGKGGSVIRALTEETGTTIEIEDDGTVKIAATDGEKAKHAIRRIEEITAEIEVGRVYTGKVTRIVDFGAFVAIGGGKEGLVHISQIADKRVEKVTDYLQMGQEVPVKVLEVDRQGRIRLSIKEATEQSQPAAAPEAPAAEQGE
The assay can be described thus: SPR; PNPase with C-terminal His6 tag immobilised on Series S Sensor Chip NTA (5 RU); Biacore T200, 25°C; 20 mM HEPES pH 7.2, 150 mM NaCl, 5 mM MgCl2, 0.5 mM TCEP, 0.05% Tween 20; six peptide concentrations up to 9000 nM (up to 5000 nM for RNase E 985–1061); contact 60 s, dissociation 120 s. Conditions: both partners purified. Background: Surface plasmon resonance follows binding to a sensor surface in real time, without labels.

[2] abbreviates: SPR, mutant vs wildtype RNase E 960–1061.

“Also recorded” adds a separate entry of the source.

B1: RNase E 960 – 1061 R1012AR10546A: RNase E peptide with mutation of both Arg1012 and Arg1056 to alanine (peptide)
chain: VVETAEVVVAEPEVVAQPAAPVVAEVAAEVETVAAVEPEVTVEHNHATAPMTAAPAPEYVPEAPRHSDWQRPTFAFEGKGAAGGHTATHHASAAPAAPQPVE
modifications: left off: His6, N-terminal, cleaved | MBP, N-terminal, cleaved | intein, C-terminal, cleaved | choline-binding domain, C-terminal, cleaved
notes: RNase E peptide with mutation of both Arg1012 and Arg1056 to alanine
For the molecule B1, the “Kd (dissociation rate constant, point mutants and wildtype)” value with PNPase (SPR, 25°C, immobilized PNPase C-His, HEPES pH 7.2, 0, 12.5, 25 and 50 nM (point mutants), contact 120 s, dissociation 120 s, duplicates) was determined as 0.12 s⁻¹. Besides, the “KD range in words (double mutant)” value with PNPase (SPR, 25°C, immobilized PNPase C-His, contact 120 s) was “low micromolar range”. Further, the “association rate compared to R1056A, in words” value with PNPase (SPR, double mutant vs slowest-binding single mutant (R1056A)) was “ten-fold slower”. In the assay with PNPase (setting [2]), the “association rate compared to the wildtype, in words” value is on record as “about two orders of magnitude slower” and the “dissociation rate (off-rate) compared to the wildtype, in words” value is recorded as “faster off-rate”. In addition, the “effect on KD / binding compared to the wildtype, in words” value in the assay with PNPase (SPR, mutant vs wildtype RNase E 960–1061, listed as R1012AR1056A) is recorded as “significant decrease in binding; also recorded: significantly affected the binding to PNPase”.

B2: RNase E 985-1061 (domain or fragment, E. coli, UniProt P21513 985-1061, looked up)
chain: VAAEVETVAAVEPEVTVEHNHATAPMTRAPAPEYVPEAPRHSDWQRPTFAFEGKGAAGGHTATHHASAAPARPQPVE
notes: source: E. coli Evo21(DE3), pMxe vector, purified (Ni-NTA, amylose, TEV, Q, Superdex 75); not shown: His6, N-terminal, cleaved; MBP, N-terminal, cleaved; intein, C-terminal, cleaved
For B2, in assay [1], binding was characterised by a dissociation constant (Kd) of 4.02 nM, the koff was 0.0158 s⁻¹ and the kon came out at 3.93e+06 M⁻¹ s⁻¹.

B3: RNase E 985-1061: RNase E peptide that includes both β1 and β2 motifs (peptide)
chain: VAAEVETVAAVEPEVTVEHNHATAPMTRAPAPEYVPEAPRHSDWQRPTFAFEGKGAAGGHTATHHASAAPARPQPVE
modifications: left off: His6, N-terminal, cleaved | MBP, N-terminal, cleaved | intein, C-terminal, cleaved | choline-binding domain, C-terminal, cleaved
notes: RNase E peptide that includes both β1 and β2 motifs
On to B3, for which the “cause of increase in affinity over 1039–1061, in words” value with PNPase is “both acceleration of on-rate and decrease of off-rate”. Besides, in the assay with PNPase (pH 7.2), the “KD range in words” value is listed as “from the micromolar range to the low nanomolar range”, the k a is reported as 3.93E + 6 1/M s and the k d was found to be 0.0158 s⁻¹.

B4: RNase E 1039-1061 (peptide, UniProt P21513 1039-1061, looked up)
chain: GAAGGHTATHHASAAPARPQPVE
notes: as for B2
With B4, in assay [1], the Kd stood at 5920 nM, the off-rate constant (koff) was 0.833 s⁻¹ and the kon was 140000 M⁻¹ s⁻¹.

For orientation: Kd means the concentration at which binding is half-saturated. A lower Kd goes with higher affinity. What is called koff is a measure of how fast the partners let go of each other. Higher therefore signals a short-lived complex. Broadly, the kon is the rate constant with which the complex forms. The low end stands for slow association, the high end for fast association.
